Data taken from patent US20240043505A1 (UNIVERSITY OF PITTSBURGH OF THE COMMONWEALTH SYSTEM OF …, published 2024).
Numbering of substitutions follows the chain as printed. Values joined by “and” are separate entries in the source; they are usually repeats but may differ in a detail not shown here. Equal entries are not always repeated.

B1: Nb90 (VHH)
VHH: HVQLVESGGGLVQAGGSLRLSCAVSGRTVSSYVMGWFRQAPGKEREFVAGIGRTGMTITADSVKGRFTISRDNAKNLVYLQMNSLKSEDTAVYWCAAGVRDFAPRIDSYDYWGQGTQVTVSS
B2: Nb105 (VHH)
VHH: HVQLVESGGGLVQAGGSLRLSCAVSGRTFSTYGMAWFRQAPGKERDFVATITRSGETTLYADSVKGRFTISRDNAKNTVYLQMNSLKIEDTAVYYCAVRRDSSWGYSRDLFEYDYWGQGTQVTVSS
B3: Nb83 (VHH)
VHH: HVQLVESGGGLVQPGGSLRLSCAASGRSFNSYLMGWFRQAPGKEREFVAWISGSPHDIIRYRDSVKDRFTISRDNAKNTVYLQMNSLKPVDTAVYYCAVGSLRVGSFSPDYWGQGTQVTVSS
B4: Nb92 (VHH)
VHH: HVQLVESGGGLVQAGGSLRLSCAASGRTFSAYGMGWFRQAPGKEREFVAGIARSGSEYYGDSVKGRFTISRDNAKNTVYLQMASLKAEDTGVYYCAADPTILYHALSQRTQNYRYWGPGTQVTVSS
B5: Nb107 (VHH)
VHH: HVQLVESGGGLVQAGGSLRLSCAASGRAIGIHRMAWFRQAPGKERAFVAAIQWTGDMPTYADSLKGRFTISADNAKNTVSLQMTSLKPDDTAVYYCAARSATTALYDYWGQGTQVTVSS
B6: Nb107 (VHH)
VHH: B5 VHH
B7: Nb93 (VHH)
VHH: EVQLVESGGGLVQPGGSLRLSCAASGFTFSSYAMSWVRQAPGKGREWVAGITPGSGTFYADSVKGRFTISRDNAKNTLSLEINSLKPEDTALYYCAKCRQEFSWDFSSRDPDDFDYWGQGTQVTVSS
B8: Nb16 (VHH)
VHH: DVQLVESGGGLVQAGESLRLSCAASGDMFSSNAMAWYRQAPGKQRELVASITSGGNTNYADSVKGRFTISRDNAKNTVYLQMDSLKPEDTAVYYCNGVAYDYSWGRPRNFWGQGTQVTVSS
B9: Nb48 (VHH)
VHH: HVQLVESGGGLVQAGGSLRLSCAASGSIFRHYNMGWFRQAPGKEREFVSAISWTNIGTYYADSVKGRFSISRDNNRNTAYLEMNSLKPEDTAVYYCAADRSEFGSRLYSDENEYDYWGQGTQVTVSS
B10: Nb48 (VHH)
VHH: B9 VHH
B11: Nb99 (VHH)
VHH: QVQLVESGGGLVQTGGSLRLSCAASGSTRSIWYSGWYRQAPGKQRELVASLTSGGTTYYPDSMKGRFTISGSSGLNMVYLQMNSLRPEDTAVYSCNVRTGSGVYWGQGTQVTVSS
B12: Nb99 (VHH)
VHH: B11 VHH
B13: Nb102 (VHH)
VHH: QVQLVESGGGLVQAGGSLRLSCAASGRTFSNSHMGWFRQAPGKEREFVAVISRSGGSTLYADSVKGRFTISRDNAKNTVYLQMNSLKPEDTAVYYCAASRTAGLTSNRSLYDYWGRGTQVTVSS
B14: Nb102 (VHH)
VHH: B13 VHH
B15: Nb82 (VHH)
VHH: DVQLVESGGGLVQAGGSLGLSCAASGSIFRLTAMGWYRQAPGKQRDLVTTITSAGIPHYADSVKGRFTISRDNAKNTVYLQMNGLKPEDTAVYYCYANTLNSQLLPRAYWGQGTQVTVSS
B16: Nb82 (VHH)
VHH: B15 VHH
B17: Nb66 (VHH)
VHH: HVQLVESGGGLVQAGGSLRLSCAASGRTFSVNSIAWFRQAPGKEREFVATINWSGGDIYYADSVKGRFTISRDNGKNTVYLQMNSLKPTDTAVYYCAAARFYGRSIAQDYDSWGQGTQVTVSS
B18: Nb9 (VHH)
VHH: HVQLVESGGGLVQTGGSLRLSCAFSGYTFSTFPTAWFRQAPGKEREFVAGIRWNGGSRDYTEYADFVKGRFTISRDNAKNMIYLQMISLKPEDTALYYCAASHGVVDGTSVNGYRYWGQGTQVTVSS
B19: Nb6 (VHH)
VHH: HVQLVESGGGLVQAGGSLRLSCAASGRTFSTHATGWFRQAPGKEREFLATSVWLDDISRDSTYYAESVKGRFSISRDNAKDTVYLQMNSLKPEDTAVYYCAVKQRVGPGIMSAPTYDYWGQGTQVTVSS
B20: Nb11 (VHH)
VHH: HVQLVESGGGLVQAGGSLRLSCAVSGASAERVGWFRRAPGKEREFVAAIGANGGSTNYLDSVKGRFTISRDNAKNTVYLQMNSLKPQDTAVYYCAARNLETFDYTYWGRGTQVTVSS
B21: Nb78 (VHH)
VHH: B20 VHH with H1Q, V24I, E30N, N52S, S55M, L99I, F102A, D103E, R109Q
B22: Nb28 (VHH)
VHH: HVQLVESGGGLVQAGGSLRLSCAASGRTFSTSTMDMGWFRQAPGKEREFVGADSWNDGRTYYADSVKGRFTISRDNAKNTLYLQMNNLKPEDTAVYYCAAETYSLYEKSDSWGYWGQGTQVTVSS
B23: Nb28 (VHH)
VHH: B22 VHH
B24: Nb36 (VHH)
VHH: B22 VHH with R19T, S21T, T31S, S32E, G51A, R59S, N76S, N87S, L105I, S109D
B25: Nb64 (VHH)
VHH: QVQLVESGGGLVQAGGSLRLSCAVSGRTFSIAGMGWFRQAPGKDREFLGGITWNDGTTWYADSVKGRFTISRDNAKNMLSLRMNSLKPEDTAVYYCAAGPRLGSTPRAYDYWGQGTQVTVSS
B26: Nb64 (VHH)
VHH: B25 VHH
B27: Nb95 (VHH)
VHH: QVQLVESGGGLVQAGGSLRLSCAASGRTFSSYSMGWFRQAQGKEREFVATINGNGRDTYYTNSVKGRFTISRDDATNTVYLQMNSLKPEDTAIYYCAADKDVYYGYTSFPNEYEYWGQGTQVTVSS
B28: Nb97 (VHH)
VHH: HVQLVESGGGLVQAGGSLRLSCAAPGRTFSTSAMGWFRQAPGKEREFVAAIDWSNTNIHYADTVKGRFTISTDTAKNTVYLQMNNLKPEDTAVYYCAQGGWGLTQPISVDYWGKGTQVTVSS
B29: Nb96 (VHH)
VHH: HVQLVESGGGLVQAGDSLRLSCAASGRDFSSYAMGWFRQAPGKEREFVGVISSGDVGTFYEDSVKGRFTISRDDAKNTVDLQMNSLKPEDTAVYYCAAALYVTSTRGSYAYWGQGTQVTVSS

Tests used:
[1] = target: SARS-CoV-2 (Wuhan-Hu-1 strain) spike glycoprotein on pseudotyped virus particles (SARS-CoV-2, UniProt P0DTC2 14-1273); assay: cell-based or functional assay
[2] = target: SARS-CoV-2 spike receptor-binding domain (RBD) (SARS-CoV-2, UniProt P0DTC2 319-541); assay: indirect ELISA, RBD coated on plate, 4PL fit
[3] = target: SARS-CoV-2 Munich strain spike glycoprotein on authentic virus (SARS-CoV-2); assay: cell-based or functional assay
[4] = target: SARS-CoV-2 spike glycoprotein (Wuhan-Hu-1 strain) on pseudotyped virus particles (SARS-CoV-2 (Wuhan-Hu-1 strain), UniProt P0DTC2 14-1273); assay: cell-based or functional assay

Row | Binder | ELISA affinity [2] [nM] | Pseudo-neut IC50 Luciferase [1] [nM] | further results
1 | B1 |  |  | Pseudo-neutralization (GFP) [1]: > 3 µM
2 | B2 | 0.26 |  | 
3 | B3 | 1.51 |  | 
4 | B4 |  |  | Pseudo-neutralization (GFP) [1]: > 3 µM
5 | B5 |  | 0.569 | Authentic virus PRNT IC50 [3]: 0.181 nM
6 | B6 | 0.76 |  | 
7 | B7 |  | 14.5 | 
8 | B8 |  | 1.57 | Authentic virus PRNT IC50 [3]: 1.23 nM
9 | B9 | 1.08 |  | Pseudo-neutralization (GFP) [4]: 500 nM
10 | B10 |  |  | Pseudo-neutralization (GFP) [1]: 0.5 µM and 3 µM
11 | B11 |  | 0.524 | Authentic virus PRNT IC50 [3]: 0.452 nM
12 | B12 | 0.35 |  | 
13 | B13 |  |  | Pseudo-neutralization (GFP) [1]: 0.5 µM and 3 µM
14 | B14 | 28.4 |  | 
15 | B15 |  | 12.2 | 
16 | B16 | 0.86 |  | 
17 | B17 | 0.33 |  | 
18 | B18 |  | 1.5 | Authentic virus PRNT IC50 [3]: 1.72 nM
19 | B19 |  |  | Pseudo-neutralization (GFP) [1]: > 3 µM
20 | B20 |  | 1.08 | Authentic virus PRNT IC50 [3]: 0.8 nM
21 | B21 |  | 0.509 | Authentic virus PRNT IC50 [3]: 0.766 nM
22 | B22 | 0.92 |  | Pseudo-neutralization IC50 (Luciferase) [4]: 6 nM
23 | B23 |  | 6.12 | 
24 | B24 | 1.04 |  | Pseudo-neutralization IC50 (Luciferase) [4]: 7 nM
25 | B25 |  | 4.13 | Authentic virus PRNT IC50 [3]: 4.88 nM
26 | B26 | 0.45 |  | 
27 | B27 | 2.28 |  | 
28 | B28 | 0.32 |  | 
29 | B29 | 0.04 |  | 
